# Results as given in patent US20150202250A1.
# Biological target: isolated NS2B-NS3 protein complex from the DENV-2 viral genome (Dengue virus type 2 (DENV-2)) (UniProt P14340)
# Assay: cell-based or functional assay
# UniProt P14340, sequence (P14340 1394-1440 limits assumed, chain 1 of 2): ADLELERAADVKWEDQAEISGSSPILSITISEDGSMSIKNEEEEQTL
# UniProt P14340, sequence (P14340 1476-1660 limits assumed, chain 2 of 2): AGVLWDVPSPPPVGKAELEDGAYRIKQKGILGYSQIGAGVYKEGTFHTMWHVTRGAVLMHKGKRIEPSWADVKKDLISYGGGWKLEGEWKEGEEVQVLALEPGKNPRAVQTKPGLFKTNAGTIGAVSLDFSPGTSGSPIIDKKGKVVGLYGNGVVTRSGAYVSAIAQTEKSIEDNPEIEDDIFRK
binder,measurement,value
RetroMAD1 (protein) MGRICRCICGRGICRCICGVPGVGVPGVGGATGSDVNFDLSTATAKTYTKFIEDFRATLPFSHKVYDIPLLYSTISDSRRFILLDLTSYAYETISVAIDVTNVYVVAYRTRDVSYFFKESPPEAYNILFKGTRKITLPYTGNYENLQTAAHKIRENIDLGLPALSSAITTLFYYNAQSAPSALLVLIQTTAEAARFKYIERHVAKYVATNFKPNLAIISLENQWSALSKQIFLAQNQGGKFRNPVDLIKPTGERFQVTNVDSDVVKGNIKLLLNSRASTADENFITTMTLLGESVVEFPWALWKTMLKELGTMALHAGKAALGAAADTISQGTQVPGVGVPGVGKLAAALEHHHHHH,inhibition of NS2B-NS3 protease (cleavage of fluorogenic peptide substrate) (% inhibition at 10.8 µM),94.3
